The data set addresses recombinant human EGFR/ErbB1 Fc chimera (rhEGFR) (human, UniProt P00533 25-645). In words: SPR. (In general: In SPR one partner is held on a chip, and binding of the other changes the refractive index at the surface.)

In PMC4046795 one finds Kd data, which are given here for one molecule.

B1: E07 anti-EGFR aptamer (structured_RNA)
RNA: GGCGCUCCGACCUUAGUCUCUGUGCCGCUAUAAUGCACGGAUUUAAUCGCCGUAGAAAAGCAUGUCAAAGCCGGAACCGUGUAGCACAGCAGAGAAUUAAAUGCCCGCCAUGACCAG
modifications: 2'-fluoropyrimidine
A word on the Kd: it is the free concentration of one partner at which half of the binding sites on the other are occupied at equilibrium, for simple one-to-one binding. B1: the Kd was determined as 112 nM.
